Values of other authors in article PMC7617445.

Target: IL-18 (Homo sapiens) (UniProt Q14116)
Sequence (Q14116 37-193): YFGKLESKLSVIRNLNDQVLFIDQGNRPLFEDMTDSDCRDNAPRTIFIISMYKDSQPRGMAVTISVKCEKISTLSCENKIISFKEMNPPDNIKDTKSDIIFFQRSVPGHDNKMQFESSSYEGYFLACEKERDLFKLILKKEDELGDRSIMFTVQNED

IL-18BP, sequence (O95998 31-194): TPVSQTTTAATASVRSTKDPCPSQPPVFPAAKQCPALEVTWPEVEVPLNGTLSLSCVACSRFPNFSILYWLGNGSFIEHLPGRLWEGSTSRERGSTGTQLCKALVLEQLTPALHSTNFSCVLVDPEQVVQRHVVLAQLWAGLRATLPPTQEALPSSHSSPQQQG

**Q.** With IL-18BP (from UniProt O95998) as the substance, how does the Kd read?
**A.** Its Kd is 0.1 nM.
